Key:
Albumin = Albumin (Homo sapiens, UniProt P02768); test: Albumin binding constant; details: normalised using Lys^B29(N^ε tetradecanoyl) des(B30) human insulin as reference
[1] = Gel filtration method 2 on Superose 6HR (HPLC, 37° C.); format: physicochemical; details: 140 mM NaCl, 10 mM tris, pH 7.4
Experimental: An alternative method to measure the capability of insulin derivatives of forming soluble high molecular weight aggregates was developed, suitable for HPLC equipment. The column dimensions, injection volume, and flow rate correspond to the first method, whereas the temperature is increased to 37° C. and the phosphate buffer is changed to trishydroxymethylaminomethan hydrochloride and additional sodium chloride. The aggregated state of insulin is defined to elute before the gel filtration standard aldolase like in the first method.

[2] = Gel filtration on Sephacryl S-300 HR (aggregate formation, method 1); format: physicochemical; design: key to KAV: KAV=(VE-V0)/(VT-V0); fraction of available elution volume; details: Sephacryl S-300 HR, pH 7.4 eluent; Zinc free
[3] = Disappearance after subcutaneous injection in pigs; details: pigs
Excerpt: The gel filtration experiment using the conditions prescribed in this section is the direct physico-chemical method to reveal the potential aggregate formation property of an insulin derivative. Disappearance after subcutaneous injection in pigs reflects the combination of the albumin binding and polymer formation properties of the insulin derivative, besides a variety of biological factors.

Human insulin [reference compound]
Albumin binding Kass (Albumin): 0 (mol/l)^−1
KAV (Superose 6HR) 2Zn^2+/6 ins ([1]; 2 Zn2+/6 ins): 0.64
KAV (Superose 6HR) 3Zn^2+/6 ins ([1]; 3 Zn2+/6 ins): 0.64
KAV [2]: 0.72
Disappearance T50% ([3]; subcutaneous injection, normalised using Lys^B29(N^ε tetradecanoyl) des(B30) human insulin as reference): (2) h
Disappearance in pigs, T50% ([3]; subcutaneous, normalised to Lys^B29(N^ε tetradecanoyl-) des(B30) human insulin (T50% = 14.3 h)): 2 h
